# Assay results published in publication PMC4756836 (Nucleic Acids Research, 2015).
# B1: yeast mitochondrial threonyl-tRNA synthetase MST1 (enzyme, S. cerevisiae)
# chain: QDLFMTDPLSPGSMFFLPNGAKIFNKLIEFMKLQQKFKFGFNEVVTPLIYKKTLWEKSGHWENYADDMFKVETTDEEKEEYGLKPMNCPGHCLIFGKKDRSYNELPLRFSDFSPLHRNEASGALSGLTRLRKFHQDDGHIFCTPSQVKSEIFNSLKLIDIVYNKIFPFVKGGSGAESNYFINFSTRPDHFIGDLKVWNHAEQVLKEILEESGKPWKLNPGDGAFYGPKLDIMVTDHLRKTHQVATIQLDFQLPERFDLKFKDQDNSYKRPIMIHRATFGSIERFMALLIDSNEGRWPFWLNPYQAVIIPVNTKNVQQLDMCTALQKKLRNELEADDMEPVPLNDWHFNVDLDIRNEPVGYRIKSAILKNYSYLIIVGDEEVQLQKYNIRERDNRKSFEKLTMSQIWEKFIELEKNYK
# Target: the molecule itself
# Assay: crystal structure
protein,measurement,value
B1,stoichiometry N,2
